One substance from PMC9517163 can be followed below.

In general, Kd refers to the concentration at which binding is half-saturated. Read a high Kd as weaker binding.

The assay deals with minke whale ACE2, mFc-tagged (minke whale). Put plainly: SPR.

In the case of “SARS-CoV-2 receptor-binding domain (RBD), prototype (from UniProt P0DTC2) (domain or fragment)”, the Kd was 156 nM. This lies in the sub-micromolar range.
